Changes are numbered by the printed parent chain. Names and notes keep the numbering of the source.
B1: E147A-AIM2FL (natural protein, UniProt O14862 1-343, looked up)
chain: MESKYKEILLLTGLDNITDEELDRFKFFLSDEFNIATGKLHTANRIQVATLMIQNAGAVSAVMKTIRIFQKLNYMLLAKRLQEEKEKVDKQYKSVTKPKPLSQAEMSPAASAAIRNDVAKQRAAPKVSPHVKPEQKQMVAQQESIRAGFQKRCLPVMVLKAKKPFTFETQEGKQEMFHATVATEKEFFFVKVFNTLLKDKFIPKRIIIIARYYRHSGFLEVNSASRVLDAESDQKVNVPLNIIRKAGETPKINTLQTQPLGTIVNGLFVVQKVTEKKKNILFDLSDNTGKMEVLGVRNEDTMKCKEGDKVRLTFFTLSKNGEKLQLTSGVHSTIKVIKAKKKT
notes: AIM2 (absent-in-melanoma-2), full length, residues 1-343, with E147A in the HIN200 domain; source: E. coli ER2566, purified (amylose resin, HiTrap-SP, TEV cleavage, gel filtration); not shown: MBP, N-terminal, cleaved
B2: I46D mutant of full-length AIM2 (natural protein, UniProt O14862 1-343, looked up)
chain: B1 chain with I46D, A147E
notes: AIM2 (absent-in-melanoma-2), residues 1-343, mutation in the PYD; Probably with the MBP tag removed as for wild-type AIM2^FL; source: E. coli ER2566, purified
B3: L10A-L11A-AIM2^FL (natural protein, UniProt O14862 1-343, looked up)
chain: B1 chain with L10A, L11A, A147E
notes: AIM2 (absent-in-melanoma-2), residues 1-343, mutations in the PYD; Probably with the MBP tag removed as for wild-type AIM2^FL; source: E. coli ER2566, purified
B4: Q258A-AIM2FL (natural protein, UniProt O14862 1-343, looked up)
chain: B1 chain with A147E, Q258A
notes: AIM2 (absent-in-melanoma-2), full length, residues 1-343, with Q258A in the HIN200 domain; source: E. coli ER2566, purified (amylose resin, HiTrap-SP, TEV cleavage, gel filtration); not shown: MBP, N-terminal, cleaved
B5: T50A-AIM2FL (natural protein, UniProt O14862 1-343, looked up)
chain: B1 chain with T50A, A147E
notes: AIM2 (absent-in-melanoma-2), full length, residues 1-343, with T50A in the PYD; source: E. coli ER2566, purified (amylose resin, HiTrap-SP, TEV cleavage, gel filtration); not shown: MBP, N-terminal, cleaved

Experiments:
[1] = biological target: the molecule itself; assay: negative-stain electron microscopy; dsDNA-free AIM2FL variants at 2 uM adsorbed to carbon grids, stained with 1% uranyl formate or uranyl acetate; filaments
[2] = biological target: the molecule itself; assay: negative stain electron microscopy; purified protein incubated 30 min with λdsDNA (wild type also with supercoiled and nicked circular plasmids), 160 mM KCl; filament formation on dsDNA

Row | Protein | binding result [1] | binding result [2]
1 | B1 | binds | –
2 | B2 | – | binds
3 | B3 | – | binds
4 | B4 | binds | –
5 | B5 | binds | –
